Laboratory results from paper PMC6739470, “Modular Protein Ligation: A New Paradigm as a Reagent Platform for Pre-Clinical Drug Discovery” (Scientific Reports, 2019).

B1: sCD73flagACK-biotin (soluble CD73 truncated after S552, C-terminal flag-Ala, ligated to C[K-PEG2-Biotin]) (enzyme, human, UniProt P21589 27-552, looked up)
chain: WELTILHTNDVHSRLEQTSEDSSKCVNASRCMGGVARLFTKVQQIRRAEPNVLLLDAGDQYQGTIWFTVYKGAEVAHFMNALRYDAMALGNHEFDNGVEGLIEPLLKEAKFPILSANIKAKGPLASQISGLYLPYKVLPVGDEVVGIVGYTSKETPFLSNPGTNLVFEDEITALQPEVDKLKTLNVNKIIALGHSGFEMDKLIAQKVRGVDVVVGGHSNTFLYTGNPPSKEVPAGKYPFIVTSDDGRKVPVVQAYAFGKYLGYLKIEFDERGNVISSHGNPILLNSSIPEDPSIKADINKWRIKLDNYSTQELGKTIVYLDGSSQSCRFRECNMGNLICDAMINNNLRHTDEMFWNHVSMCILNGGGIRSPIDERNNGTITWENLAAVLPFGGTFDLVQLKGSTLKKAFEHSVHRYGQSTGEFLQVGGIHVVYDLSRKPGDRVVKLDVLCTKCRVPSYDPLKMDEVYKVILPNFLANGGDGFQMIKDELLRHDSGDQDINVVSTYISKMKVIYPAVEGRIKFSTGS
modifications: C-terminal Ala-Cys-Lys after the flag tag (Ala from the construct, Cys-Lys dipeptide added by expressed protein ligation); PEG2-biotin on the epsilon-amino group of the lysine
notes: soluble CD73 (5'-nucleotidase), truncated after residue S552; Uniprot P21589; Chain order: CD73(to S552)-flag-Ala-Cys-Lys(PEG2-biotin); Secreted protein; also called CD73 labeled with CK-biotin; sCD73flagACK-label; source: HEK293 cells transduced with BacMam, secreted as GyrA-CBD fusion; captured on chitin resin, ligated in 36 mM MESNA, sized on Superdex 200; not shown: FLAG, C-terminal, kept
B2: sCD73-flag-CK-fluorescein (soluble CD73 truncated after S552, C-terminal flag-Ala, ligated to C[K-fluorescein]) (enzyme, human, UniProt P21589 27-552, looked up)
chain: WELTILHTNDVHSRLEQTSEDSSKCVNASRCMGGVARLFTKVQQIRRAEPNVLLLDAGDQYQGTIWFTVYKGAEVAHFMNALRYDAMALGNHEFDNGVEGLIEPLLKEAKFPILSANIKAKGPLASQISGLYLPYKVLPVGDEVVGIVGYTSKETPFLSNPGTNLVFEDEITALQPEVDKLKTLNVNKIIALGHSGFEMDKLIAQKVRGVDVVVGGHSNTFLYTGNPPSKEVPAGKYPFIVTSDDGRKVPVVQAYAFGKYLGYLKIEFDERGNVISSHGNPILLNSSIPEDPSIKADINKWRIKLDNYSTQELGKTIVYLDGSSQSCRFRECNMGNLICDAMINNNLRHTDEMFWNHVSMCILNGGGIRSPIDERNNGTITWENLAAVLPFGGTFDLVQLKGSTLKKAFEHSVHRYGQSTGEFLQVGGIHVVYDLSRKPGDRVVKLDVLCTKCRVPSYDPLKMDEVYKVILPNFLANGGDGFQMIKDELLRHDSGDQDINVVSTYISKMKVIYPAVEGRIKFSTGS
modifications: C-terminal Ala-Cys-Lys after the flag tag (Ala from the construct, Cys-Lys dipeptide added by expressed protein ligation); fluorescein on the epsilon-amino group of the lysine
notes: soluble CD73 (5'-nucleotidase), truncated after residue S552; Uniprot P21589; Chain order: CD73(to S552)-flag-Ala-Cys-Lys(fluorescein); Secreted protein; also called CD73 EPL fluorescein labeled; CD73 labeled with CK-fluorescein; source: HEK293 cells transduced with BacMam, secreted as GyrA-CBD fusion; captured on chitin resin, ligated in 36 mM MESNA, sized on Superdex 200; not shown: FLAG, …

Molecular target: the molecule itself
Assay: SEC; Superdex 200 column, final labeled products, compared with MW standards; no aggregate peak observed

Protein | stoichiometry N
B1 | 2
B2 | 2
